According to the DeepSol protein solubility set:

Assay: soluble on expression in E. coli; label from the status in PepcDB or PDB records

Row | Sequence | soluble on expression in E. coli
1 | MIRNKAFVVRLYPNAAQTELINRTLGSARFVYNHFLARRIAAYKESGKGLTYGQTSSELTLLKQAEETSWLSEVDKFALQNSLKNLETAYKNFFRTVKQSGKKVGFPRFRKKRTGESYRTQFTNNNIQIGEGRLKLPKLGWVKTKGQQDIQGKILNVTVRRIHEGHYEASVLCEVEIPYLPAAPKFAAGVDVGIKDFAIVTDGVRFKHEQNPKYYRSTLKRLRKAQQTLSRRKKGSARYGKAKTKLARIHKRIVNKRQDFLHKLTTSLVREYEIIGTEHLKPDNMRKNRRLALSISDAGWGEFIRQLEYKAAWYGRLVSKVSPYFPSSQLCHDCGFKNPEVKNLAVRTWTCPNCGETHDRDENAALNIRREALVAAGISDTLNAHGGYVRPASAGNGLRSENHATLVVLEHHHHHH | soluble
2 | DQVSRFRLLGGNQVRPLAGGDEAYPAMMQAIREARVSIAMQSYIFDCDPIGREMAQALVEAQQRGVQVRVLIDAIGSKYSRPPIVRTLVRGGVRTARFMTNPLGVMRMPYANLRSHRKILVVDGHVGFTGGMNIRAAFVTALAGKAANGDTHFRLEGPVVAQLMAVFAHDWNFTTRESLEGPTWFPPAPERAPGSVPMRCVASGPDSALGSTHKM | not soluble
3 | MLHKEKPDYNRNQYGFYTLDQLVPDEHFLRQVEAVIDFDFIYDLVEDTYSSDNGRPSLDPVMLVKIPLIQCFYGIRSMRQTIKDIEVNTAYRWFLGLTLDDKVPHFTTYGKNYSRRFQEKGLIESIFTHIVGLCINTGLIDPTEIFIDGTHIKAAANNRKFINREVEKQAKFMSEQLEIEINRDREKHGKKPLGPAKELEPVAKKISTTDPESGWFHKGDHKEVFAYSAQVACDKYGWALAYSVEAGNIHDSQAFPALFAKLEPLKPQFIIADSGYNVPSIAKFLIDKEITPVLPYTRPRGKKDLLRPKELIYDEHFDCVICPEHQALTYRTTTREGYREYKSDPVICANCPLLSVCTTSKNYQKVVTRHIWKDYLAQPRNTTISAIRERKASPKWKIRLD | not soluble
4 | MGSDKIHHHHHHMREVHVNDIKEAVKEAIIEANCVLPREVRVAFQEALKREESPIGREVLTQILENAEIAQYYYMPYCQDTGVDVIFVFLGQDVHVVGGSLEDAINQGVREATEEGYLRASMVWDPVFERKNTKDNTPAIIHYEVVPGDRVKIVVAPKGAGSENTSRLAMLKPADGWEGVKKFILETVKFAGPNACPPFTVGVGIGGNFEYCAYLAKKALLRPVGKRHENPLIAKVEEELLEEINKIGWGPMGFGGTVTAVDVKVEMYPCHIASLPVAVNIQCHANRHAERVV | not soluble
5 | SLKCYTCKEPMTSASCRTITRCKPEDTACMTTLVTVEAEYPFNQSPVVTRSCSSSCVATDPDSIGAAHLIFCCFRDLCNSEL | soluble
6 | MGSDKIHHHHHHMRTALLEVGLEELPASEFHSILKQLEEKSAELLKAYRVSSGSVEVFVGSRRFGVILKNLPERQEDFTEEKKGPPLNVAYDENGKPTRALEGFLRNNNASLENVVHREGYVYLSRVVEGKPVEEVLPDLFRDLVLGLNFRKPMRWGSGEHEYIRPVHWIVAMVDGRVLDLEIFGLRSSRISYGKRYHAGSIEIPDSERYYESLKKGFVISSHLERKKFVLEQIDEFEKRSSMKIERDEELIEEIVAITEYPRIVVGQFDRKYLELPEEIIVTAVKHHQRSFIAHKGTLTNTFVAFQDGPQPPENVVKGYERVINARLEDARYYFQKDLETPLEKMNEKLKEIVFQEKLGTLYDKVERIKKISQRLCEDLKLPGSFTQKVLEAASICKADIASKVVYEFPELQGVMGRIYALREGINEEIATAIEDHYSEEPQTVIGSILGIADRIDTIVGNFAIGNVPTSSKDPYGLKSKADTIFRIIRKNEWDISLEELLTFASSLVGYRLSEELETFFAGRFYQFLINELGISFDVARAVNHLWKKPLRGILSAEALQEISEKPEFQDLFVGFERVHNITKNHDSTKFDGALFEKEEEKKLMNKFYEVKEKVLKALERLNYREALQYLIELKPYIDEYFDNVFVMVKRDDLRVNRLSFLKNIDELFMMVGDMTYLVKRSQV | not soluble
7 | MRKQNRPNQTARKQMQNLTVELFARDKNARRQLLNVALTATPPPSVEPSSPTRPSEPIPPPLPEPIPELVQILLAAEPNKPSVPKRSNRKKLTYKQPPRNSTPQVPKVAVTLPVPEPVPEPVPEPVPESTPEPISEPLPVVQEEPASDSLTVQDEQIAQAEPAVEPEEPVVVEHVEVVTASEDPTLESSPPSEPPLLTTPTTPIEDPEPYVTPPPLQRVPYKAQLTHLANIRAVTESMNIAAIPAHHQQHQPQEPMSFAACVRKQPSIESMSVSPSPYAKFDGKTSPFNVGGFSNPGGFGGFSRLDPSKNVNPFANRKRFNYDYDSLPRDSQSSSRFMDRSDLSDGFSPFNSKPNGFTNRVIPRESASSGMLPSWYKGRSFSAASSHYPYSQRSTSTGHFSSFSRPSQSTSMNIPSHGHVEELDGFLAASGQTNPFFKRTDLNMKKERWAKIKAKKRMLRRPVEDQFYEDPDIEEEILHGNGVMLNQIVQQSSAGNYEDADLLRKYRRDVAFVKERVLNAIDGNIDGIRDLRFLLASVQTYGNIDGECMLAEMAMNEFSLFSGIVEKFHAIVGPWMPESESHRRRASRHALETHRIPLQNNFATITKKRLVEEILGRVEPSIACHQGVKVGLYSDACNEKTKIDLNIKNNFKDPGMLCDKNDRRFILVLQSELDLMVDSMKHLANNVGFHYDGFPVTPNCFVIVEAFVEAISDIMNEKIDVETMRWFSLLGQKVDAEDSVSPWETGTDFHCARHSEPKSNFCASVTVGRTCCIVYHVIGSFFRRYHLKKIPTAHQPSSSNSVQ | not soluble
8 | MSDVEKKSETQEAAPKKKPYNLREKKEKKAAYRSLIRAELADELYDKILNIVVVQKKYKDPNYSAKDLAKELKTNTRYLSAVVNSRFGMNYSCLLNEYRIKDALHLLVDKRYMDKNVEEISAMVGFANRQSFYAAFYKNVGETPNGYRKRNQEKK | not soluble
9 | MEKQYRVLLYYKYVPIEDPEAFREQHLAFCKELGLLGRILVSSEGINGTVSGTVEQTEKYMETMKADPRFADMVFKIDEAEGHAFKKIFVRHKKELVTLRLEDDVDPNETTGQHLKPAEFYEKMQDPNTIVIDARNDYEYDLGHFRGAVRPDIEAFRELPEWIEEHKDMLEGKKILTYCTGGVRCEKFSGWLVKQGFEDVAQLDGGIVTYGKDPEVQGKLWDGQCYVFDERISVPVNRVEHVIVGKDYFTGEPCERYVNCANPSCNKKMICTPENEYKYMRSCSHECRTNPRNLYVKEHNMTEEEVNARLAAIETEDHAAAE | not soluble
10 | GHQLPIWKQDEKSLTENDYYSFYKNTFKAYDDPLAYVHFNVEGQISFNSILYIPGSLPWELSKNMFDEESRGIRLYVKRVFINDKFSESIPRWLTFLRGIVDSENLPLNVGREILQKSKMLSIINKRIVLKSISMMKGLKETGGDKWTKFLNTFGKYLKIGVVEDKENQEEIASLVEFYSINSGDKKTDLDSYIENMKEDQKCIYYISGENKKTAQNSPSLEKLKALNYDVLFSLEPIDEFCLSSLTVNKYKGYEVLDVNKAD | soluble
11 | MKNVGDVGDLCTGCGTCAAMCPLESVVMRIDHDRGVYEPLVDGECDGCGVCLRVCPGVGVDFTDLNMRVFGREPDDMLMGNYEECYIAHSRDDELRYGASSGGMISQILIYLLEEGLIDGALVTRMNPERPLEPEPFIARTPSEIIESRGSKYCPVPANVALKEILEVPGRYAVVGLPCHIHGVRKAEVISRKLRERIVYHLGIVCNHAPSFRATEFLLERLGVDPGDVKSIRYRGEGWPGSLRVETESGDLLLLPEYWGSGFGQLFMPERCRLCADHMAELSDISFADPWLKELKDEKKGRTLVIIRKWPEKFAGILKGGICEMDKIKPEKALLSQIYNIYMKKKLCRRSMYNGSFPEIDFIDRIILSFEPSRLKIPWTIKRRYIFFYSMIVALKARMDFLGDSKLEHHHHHH | soluble
12 | MAPLETIYDESLNKSADSIDDKKWSKLFPRIVSDPDRSSNFMTRAIYVAFSAVLRNRNILGQEYFTKNYITEKLKCMTLCFRNPRSNQIAQLLRNAGDATKDGFLKEVSLVITNNEGDLEAIEVFSMKFIYFENGGVVARLSTDKNGQEDPHFAKLAQLVYEGGDSVRDQMVTIVRSVQFLCTKVLEPLPEEFTANFRLEYTNDAPSNFRIDGFEDSSTFYTLPDDIQSATIGHLRPGCHAANMECWSMLMSDSYEAELTLKRHLDKVSDRHGFNPVNVLYKSFNSEDSDTSLSQATTESVNDQGGNETSPVDDITESLEKAQMSPIQTRPTTRRGADGSKTRSSPYSRSCK | not soluble
13 | MAHHHHHHMCLLIIEHLFYSPCTVTTVLSLKLFGGGEKTGKMSDVPKSQVGTDAKVAVAKKYTGEYYVKGMVGDKKSFAIEHSRGRQKKHTVNEFCVGDAIGRGAFAEVFQCWRPEEPHIVYAMKKIRKDLIVKRKQSLNVHTERDLLSDAKLRQKRVSCPWITDLVVAFQDQDFLYIVTEYCSGGDLISWLIRYDVFPEETARFYFVELVLALNALHKMGYVHRDVKPDNVLIDREGHVKLADFGLSKRDPDQAESTSVADDSYLTEDVTVDDDVKKRFRDKKERKVMFFSTVGSPAYIAPEVLIGRGYDYSCDWWSAGVILYEMIFGYPPFFNDNNTATAKKIIQFKEHLEFPKDQTTVSKEAIDLISHLIADSKERYGFEEIIRHPFCKGVPLTDSIRNEKAPFSVELNSPRDLQYFEPAPDNADIQKQPMTAVSREDQSVFVGFTSKLCDRNQSTTWSRALGRFHELQNFSDDD | not soluble
14 | MEQNGFHTLSLFLNPKVLRPLLTQAVTQLPKYFLGQSSTPPSTSFEGRYKPSFLERAAFSTNPFDNTGSDTQQKLSPTELIRGSYGEGREAGKKTPAELIMSTDDLKRQMPSLPDALKDTIRIQEVPKQEKSDFSEQGGVASMIPQSPFVSNIDKVSGDEAGRQQKDVMDYITEFNNRSMPEEQRGSSPVNEETLSHTPISEEEHLKANDMPEQATDYVNAVGNFIHKDANPSNLWERFRKSEFSEHLMDFFAGLASGKTPQESFSNAALVMRQGNNTRLQNRPIFAFLRSKGYDDKDAQAIMQYPDLAMKVIGSTLSPQEDYRTLTAEEKAKQGLPEDMAFQISTSTGKIIPVQGGQRSTASGLGGNTDSMLSKPESGYMLVKDKNAPHGIRAMPIAGSGAEHKLIQEQKEEERKEQQAKMQILESADRSNRIISTSKELLKIVDEHPHVAGFLGYWGSFIPGFKAKDFGHMLDSLKASIGLDALTKAKAFSPNGASGFGNLSNMELQALQNSVAALYQDLTAEQLKKSLTTIIDTFNKSNAATRAILFGGAEATRELVRAAYGEDAYKKNNTQSDVSLEKQIEALPEGILFIDSDGRIKEKQTNG | not soluble
15 | MGSDKIHHHHHHMDVTMGYFTIPKGPGDSTDARWYNAPGGRSIFLRPDNKGTTRAVLTLQAPIREAPESAQEQKRWLKERFADAGWEAPRVLDGLEDATDLYFDLLRQVRMKRWHKGRIALTGDAAWCATPLSGIGTTLAIVGAYVLAGELSKTHDIAQAFKCYENIMRPFVEKGQNVPKFGPRLMHPHSRLGVSFQRSALRFVSKPGIQKVLTKVAMPAADKVDLPDYQYHASS | not soluble
16 | MVDNLIKYIHKSDVAIVVLHEIYGINSFIEDVCQKYYKYGYDVFCPELLGEKRVFPYSKVQEAYDFFINNVGFDIYKKVEKLINDLKSEYKYVFVAGYSVGATIAWRCSEDSFCDGIICCYGSRIRDYMDVIPKCPTLLVFAKHDSFDVDSISCQLSRKQNIQIEILDANHGFIDRYSNNYSDIQTKVFTIKEKSFLSKCLA | not soluble
